Measured values as given in publication PMC11076521, “Structural basis for the intracellular regulation of ferritin degradation” (Nature Communications, 2024).

B1: NCOA4 ferritin-binding fragment (amino acids 383-522), His-tagged (domain or fragment, UniProt Q13772 383-522, looked up)
chain: SMVTEDWLVQNHQDPCKVEEVCRANEPCTSFAECVCDENCEKEALYKWLLKKEGKDKNGMPVEPKPEPEKHKDSLNMWLCPRKEVIEQTKAPKAMTPSRIADSFQVIKNSPLSEWLIRPPYKEGSPKEVPGTEDRAGKQK
notes: No tag cleavage is described; also called NCOA4^FB; NCOA4-383-522; source: E. coli T7 Lys, purified (HisTrap, PD10 desalting)
B2: C-terminally HA-FLAG-tagged NCOA4 (natural protein, UniProt Q13772 1-614, looked up)
chain: MNTFQDQSGSSSNREPLLRCSDARRDLELAIGGVLRAEQQIKDNLREVKAQIHSCISRHLECLRSREVWLYEQVDLIYQLKEETLQQQAQQLYSLLGQFNCLTHQLECTQNKDLANQVSVCLERLGSLTLKPEDSTVLLFEADTITLRQTITTFGSLKTIQIPEHLMAHASSANIGPFLEKRGCISMPEQKSASGIVAVPFSEWLLGSKPASGYQAPYIPSTDPQDWLTQKQTLENSQTSSRACNFFNNVGGNLKGLENWLLKSEKSSYQKCNSHSTTSSFSIEMEKVGDQELPDQDEMDLSDWLVTPQESHKLRKPENGSRETSEKFKLLFQSYNVNDWLVKTDSCTNCQGNQPKGVEIENLGNLKCLNDHLEAKKPLSTPSMVTEDWLVQNHQDPCKVEEVCRANEPCTSFAECVCDENCEKEALYKWLLKKEGKDKNGMPVEPKPEPEKHKDSLNMWLCPRKEVIEQTKAPKAMTPSRIADSFQVIKNSPLSEWLIRPPYKEGSPKEVPGTEDRAGKQKFKSPMNTSWCSFNTADWVLPGKKMGNLSQLSSGEDKWLLRKKAQEVLLNSPLQEEHNFPPDHYGLPAVCDLFACMQLKVDKEKWLYRTPLQM
notes: the discussion calls the NCOA4 of the cellular studies full-length; also called full-length NCOA4; source: HEK293T-FTH1 KO, transiently transfected, in lysate; HeLa-FTH1 KO, in lysate; not shown: HA, C-terminal, kept; FLAG, C-terminal, kept

Key:
[1] = biological target: T1, human FTH1 wild type (recombinant ferritin nanocage) (human, UniProt P02794 1-183); experiment: ITC; 16 injections of 3 uL NCOA4 into the cell containing ferritin; 25.00 C; 100 mM MOPS, 100 mM NaCl, pH 7.4; one class of independent binding sites; settings: both partners purified
T1 construct: ferritin heavy chain (FTH1), human; plasmid from Addgene #122652; Homopolymer cage; also called FTH1-WT; WT-FTH1; source: E. coli BL21 (DE3), purified (heat treatment, HiTrap Q HP, ammonium sulfate); copies: 24
T1 sequence (P02794 whole entry): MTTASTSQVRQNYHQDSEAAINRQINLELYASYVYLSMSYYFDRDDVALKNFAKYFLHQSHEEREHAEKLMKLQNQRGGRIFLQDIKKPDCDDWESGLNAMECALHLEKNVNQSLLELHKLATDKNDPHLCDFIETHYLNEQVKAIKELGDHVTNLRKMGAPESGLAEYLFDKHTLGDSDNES

[2] = biological target: T2, FTL S19R, Q26Y, A86D, K106N (L2H mutant, recombinant) (UniProt P02792 1-175, S19R | Q26Y | A86D | K106N); experiment: as above; settings: both partners purified
T2 construct: ferritin light chain (FTL) with four residues of FTH1 brought into the cleft; mutant ordered from Twist Bioscience in pET-29b(+); also called FTL mutant L2H; source: E. coli BL21 (DE3), purified (heat treatment, HiTrap Q HP, ammonium sulfate)
T2 sequence (P02792 whole entry S19R/Q26Y/A86D/K106N): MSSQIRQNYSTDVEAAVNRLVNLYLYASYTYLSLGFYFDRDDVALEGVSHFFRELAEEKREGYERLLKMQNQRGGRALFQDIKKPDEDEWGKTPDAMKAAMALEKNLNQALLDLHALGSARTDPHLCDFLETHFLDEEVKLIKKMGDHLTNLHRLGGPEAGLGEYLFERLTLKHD

FTH1-S114D (recombinant) = biological target: T3, FTH1-S114D (recombinant) (human, UniProt P02794 1-183, S114D); experiment: as above; settings: both partners purified
T3 construct: ferritin heavy chain (FTH1), human, phosphomimetic mutant ordered from Twist Bioscience in pET-29b(+); source: E. coli BL21 (DE3), purified (heat treatment, HiTrap Q HP, ammonium sulfate)
T3 sequence (P02794 whole entry S114D): as the sequence (P02794 whole entry) above, with S114D counted along it

[3] = biological target: T4, N-terminally MYC-tagged FTH1-S114E (human, UniProt P02794 1-183, S114E); experiment: co-IP; HEK293T-FTH1 KO cells, transient expression; anti-MYC agarose IP of MYC-FTH1, immunoblot; 50 mM Tris-HCl pH 7.5, 150 mM NaCl, 0.5% Nonidet P40, 1 mM DTT; quantified relative to FTH1-WT, normalized to immunoprecipitated FTH1; settings: partners not purified
T4 construct: ferritin heavy chain (FTH1), NM_002032.3, phosphomimetic mutant synthesized by Twist Bioscience in pTwist EF1 Alpha; source: HEK293T-FTH1 KO, transiently transfected, in lysate; not shown: MYC, N-terminal, kept
T4 sequence (P02794 whole entry S114E): as the sequence (P02794 whole entry) above, with S114E counted along it

[4] = biological target: T5, N-terminally MYC-tagged FTH1-A19Y (human, UniProt P02794 1-183, A19Y); experiment: as above; settings: partners not purified
T5 construct: ferritin heavy chain (FTH1), NM_002032.3, mutant synthesized by Twist Bioscience in pTwist EF1 Alpha; source: HEK293T-FTH1 KO, transiently transfected, in lysate; not shown: MYC, N-terminal, kept
T5 sequence (P02794 whole entry A19Y): as the sequence (P02794 whole entry) above, with A19Y counted along it

[5] = biological target: T6, N-terminally MYC-tagged FTH1-R23L (human, UniProt P02794 1-183, R23L); experiment: as above; settings: partners not purified
T6 construct: ferritin heavy chain (FTH1), NM_002032.3, mutant synthesized by Twist Bioscience in pTwist EF1 Alpha; source: HEK293T-FTH1 KO, transiently transfected, in lysate; not shown: MYC, N-terminal, kept
T6 sequence (P02794 whole entry R23L): as the sequence (P02794 whole entry) above, with R23L counted along it

[6] = biological target: T7, N-terminally MYC-tagged FTH1-S114D (human, UniProt P02794 1-183, S114D); experiment: as above; settings: partners not purified
T7 construct: ferritin heavy chain (FTH1), NM_002032.3, phosphomimetic mutant synthesized by Twist Bioscience in pTwist EF1 Alpha; source: HEK293T-FTH1 KO, transiently transfected, in lysate; not shown: MYC, N-terminal, kept
T7 sequence (P02794 whole entry S114D): as the sequence (P02794 whole entry) above, with S114D counted along it

[7] = biological target: T8, N-terminally MYC-tagged FTH1-R23A (human, UniProt P02794 1-183, R23A); experiment: as above; settings: partners not purified
T8 construct: ferritin heavy chain (FTH1), NM_002032.3, mutant synthesized by Twist Bioscience in pTwist EF1 Alpha; source: HEK293T-FTH1 KO, transiently transfected, in lysate; not shown: MYC, N-terminal, kept
T8 sequence (P02794 whole entry R23A): as the sequence (P02794 whole entry) above, with R23A counted along it

[8] = biological target: T9, N-terminally MYC-tagged FTH1-N22A (human, UniProt P02794 1-183, N22A); experiment: as above; settings: partners not purified
T9 construct: ferritin heavy chain (FTH1), NM_002032.3, mutant synthesized by Twist Bioscience in pTwist EF1 Alpha; source: HEK293T-FTH1 KO, transiently transfected, in lysate; not shown: MYC, N-terminal, kept
T9 sequence (P02794 whole entry N22A): as the sequence (P02794 whole entry) above, with N22A counted along it

[9] = biological target: T10, N-terminally MYC-tagged FTH1-R23I (human, UniProt P02794 1-183, R23I); experiment: as above; settings: partners not purified
T10 construct: ferritin heavy chain (FTH1), NM_002032.3, mutant synthesized by Twist Bioscience in pTwist EF1 Alpha; source: HEK293T-FTH1 KO, transiently transfected, in lysate; not shown: MYC, N-terminal, kept
T10 sequence (P02794 whole entry R23I): as the sequence (P02794 whole entry) above, with R23I counted along it

Binder	Kd [1] [µM]	dH [1] [kcal/mol]	stoichiometry N [1]	Kd [2] [µM]	dH [2] [kcal/mol]	stoichiometry N [2]	Kd (FTH1-S114D (recombinant)) [µM]	dH (FTH1-S114D (recombinant)) [kcal/mol]	stoichiometry N (FTH1-S114D (recombinant))	relative interaction by immunoprecipitation (% of FTH1-WT) [3] [%]	relative interaction by immunoprecipitation (% of FTH1-WT) [4] [%]	relative interaction by immunoprecipitation (% of FTH1-WT) [5] [%]	relative interaction by immunoprecipitation (% of FTH1-WT) [6] [%]	relative interaction by immunoprecipitation (% of FTH1-WT) [7] [%]	relative interaction by immunoprecipitation (% of FTH1-WT) [8] [%]	relative interaction by immunoprecipitation (% of FTH1-WT) [9] [%]
B1	2.4	-5.5	2.5	5.6	-5.26	1.9	3.5	-4.66	3	–	–	–	–	–	–	–
B2	–	–	–	–	–	–	–	–	–	113	8.86	86	111	5.35	3.72	13
